The text below walks through data of patent publication US20080306212A1 (Biogen, published 2008).

Where only a bound is given, the exact number is not on record here.

The chains are these.
B1: 1 × 20 kDa PEG-NBN104 (CHO) (ligand)
chain: AAGARGCRLRSQLVPVRALGLGHRSDELVRFRFCSGSCRRARSPHDLSLASLLGAGALRPPPGSRPVSQPCCRPTRYEAVSFMDVNSTWRTVDRLSATACGCLG
modifications: one 20 kDa PEG on the amino-terminal amino acid of one chain (Table 8: 1); glycosylated at amino acid 95 of each chain (95, 95)
B2: 2 × 20 kDa PEG-NBN104 (CHO) (ligand)
chain: AAGARGCRLRSQLVPVRALGLGHRSDELVRFRFCSGSCRRARSPHDLSLASLLGAGALRPPPGSRPVSQPCCRPTRYEAVSFMDVNSTWRTVDRLSATACGCLG
modifications: 20 kDa PEG on the amino-terminal amino acid of each chain (Table 8: 1, 1); glycosylated at amino acid 95 of each chain (95, 95)
B3: NBN104 (CHO) (ligand)
chain: AAGARGCRLRSQLVPVRALGLGHRSDELVRFRFCSGSCRRARSPHDLSLASLLGAGALRPPPGSRPVSQPCCRPTRYEAVSFMDVNSTWRTVDRLSATACGCLG
modifications: glycosylated at amino acid 95 of each chain (Table 8: 95, 95; numbering of SEQ ID NO:1)
B4: 3 × 10 kDa PEG-WT/N95K-NBN106 (ligand)
chain 1: ARATDARGCRLRSQLVPVSALGLGHSSDELIRFRFCSGSCRRARSPHDLSLASLLGAGALRSPPGSRPISQPCCRPTRYEAVSFMDVNSTWRTVDHLSATACGCLG
chain 2: ARATDARGCRLRSQLVPVSALGLGHSSDELIRFRFCSGSCRRARSPHDLSLASLLGAGALRSPPGSRPISQPCCRPTRYEAVSFMDVKSTWRTVDHLSATACGCLG
modifications: 10 kDa PEG on the amino terminus and on Lys95 (Table 8, for the dimer: 1, 1, 95); 10 kDa PEG on the amino terminus (Table 8, for the dimer: 1, 1, 95)
B5: 4 × 5 kDa PEG NBN106-N95K (ligand)
chain: ARATDARGCRLRSQLVPVSALGLGHSSDELIRFRFCSGSCRRARSPHDLSLASLLGAGALRSPPGSRPISQPCCRPTRYEAVSFMDVKSTWRTVDHLSATACGCLG
modifications: 5 kDa PEG on the amino terminus and on Lys95 of each chain (Table 8: 1, 1, 95, 95)
B6: 4 × 10 kDa PEG NBN106-N95K (ligand)
chain: ARATDARGCRLRSQLVPVSALGLGHSSDELIRFRFCSGSCRRARSPHDLSLASLLGAGALRSPPGSRPISQPCCRPTRYEAVSFMDVKSTWRTVDHLSATACGCLG
modifications: 10 kDa PEG on the amino terminus and on Lys95 of each chain (Table 8: 1, 1, 95, 95)
B7: 3 × 10 kDa PEG NBN106-N95K (ligand)
chain: ARATDARGCRLRSQLVPVSALGLGHSSDELIRFRFCSGSCRRARSPHDLSLASLLGAGALRSPPGSRPISQPCCRPTRYEAVSFMDVKSTWRTVDHLSATACGCLG
modifications: three 10 kDa PEG per dimer: both amino termini and one Lys95 (Table 8: 1, 1, 95)
B8: 3(,4) × 10 kDa PEG NBN106-N95K (ligand)
chain: ARATDARGCRLRSQLVPVSALGLGHSSDELIRFRFCSGSCRRARSPHDLSLASLLGAGALRSPPGSRPISQPCCRPTRYEAVSFMDVKSTWRTVDHLSATACGCLG
modifications: 10 kDa SPA-PEG at the amino termini and Lys95, average 3.3 PEG moieties per dimer (Table 8: 1, 1, 95 (,95)); mixture of 2, 3 and 4 PEG adducts
B9: 2 × 10 kDa PEG-NBN (ligand)
chain: AGTRSSRARATDARGCRLRSQLVPVSALGLGHSSDELIRFRFCSGSCRRARSPHDLSLASLLGAGALRSPPGSRPISQPCCRPTRYEAVSFMDVNSTWRTVDHLSATACGCLG
modifications: 10 kDa PEG on the amino-terminal amino acid of each chain (Table 8: 1, 1)
B10: 1 × 20 kDa Branched PEG-NBN (ligand)
chain: AGTRSSRARATDARGCRLRSQLVPVSALGLGHSSDELIRFRFCSGSCRRARSPHDLSLASLLGAGALRSPPGSRPISQPCCRPTRYEAVSFMDVNSTWRTVDHLSATACGCLG
modifications: one 20 kDa branched PEG on the amino-terminal amino acid of one of the two chains (Table 8: 1)
B11: 2 × 20 kDa PEG-NBN (ligand)
chain: AGTRSSRARATDARGCRLRSQLVPVSALGLGHSSDELIRFRFCSGSCRRARSPHDLSLASLLGAGALRSPPGSRPISQPCCRPTRYEAVSFMDVNSTWRTVDHLSATACGCLG
modifications: 20 kDa PEG on the amino-terminal amino acid of each chain (Table 8: 1, 1)
B12: 2 × 5 kDa PEG-NBN (ligand)
chain: AGTRSSRARATDARGCRLRSQLVPVSALGLGHSSDELIRFRFCSGSCRRARSPHDLSLASLLGAGALRSPPGSRPISQPCCRPTRYEAVSFMDVNSTWRTVDHLSATACGCLG
modifications: 5 kDa PEG on the amino-terminal amino acid of each chain (Table 8: PEGylated amino acids 1, 1)
B13: wild-type rat neublastin NBN113 (E. coli derived) (ligand)
chain: AGTRSSRARATDARGCRLRSQLVPVSALGLGHSSDELIRFRFCSGSCRRARSPHDLSLASLLGAGALRSPPGSRPISQPCCRPTRYEAVSFMDVNSTWRTVDHLSATACGCLG

The target in the first assay is c-Ret (RET receptor tyrosine kinase) on NB41A3-mRL3 cells (UniProt P35546). The experiment in a line: cell-based or functional assay.
Chain of c-Ret (RET receptor tyrosine kinase) on NB41A3-mRL3 cells (UniProt P35546) (P35546 29-1115 limits assumed): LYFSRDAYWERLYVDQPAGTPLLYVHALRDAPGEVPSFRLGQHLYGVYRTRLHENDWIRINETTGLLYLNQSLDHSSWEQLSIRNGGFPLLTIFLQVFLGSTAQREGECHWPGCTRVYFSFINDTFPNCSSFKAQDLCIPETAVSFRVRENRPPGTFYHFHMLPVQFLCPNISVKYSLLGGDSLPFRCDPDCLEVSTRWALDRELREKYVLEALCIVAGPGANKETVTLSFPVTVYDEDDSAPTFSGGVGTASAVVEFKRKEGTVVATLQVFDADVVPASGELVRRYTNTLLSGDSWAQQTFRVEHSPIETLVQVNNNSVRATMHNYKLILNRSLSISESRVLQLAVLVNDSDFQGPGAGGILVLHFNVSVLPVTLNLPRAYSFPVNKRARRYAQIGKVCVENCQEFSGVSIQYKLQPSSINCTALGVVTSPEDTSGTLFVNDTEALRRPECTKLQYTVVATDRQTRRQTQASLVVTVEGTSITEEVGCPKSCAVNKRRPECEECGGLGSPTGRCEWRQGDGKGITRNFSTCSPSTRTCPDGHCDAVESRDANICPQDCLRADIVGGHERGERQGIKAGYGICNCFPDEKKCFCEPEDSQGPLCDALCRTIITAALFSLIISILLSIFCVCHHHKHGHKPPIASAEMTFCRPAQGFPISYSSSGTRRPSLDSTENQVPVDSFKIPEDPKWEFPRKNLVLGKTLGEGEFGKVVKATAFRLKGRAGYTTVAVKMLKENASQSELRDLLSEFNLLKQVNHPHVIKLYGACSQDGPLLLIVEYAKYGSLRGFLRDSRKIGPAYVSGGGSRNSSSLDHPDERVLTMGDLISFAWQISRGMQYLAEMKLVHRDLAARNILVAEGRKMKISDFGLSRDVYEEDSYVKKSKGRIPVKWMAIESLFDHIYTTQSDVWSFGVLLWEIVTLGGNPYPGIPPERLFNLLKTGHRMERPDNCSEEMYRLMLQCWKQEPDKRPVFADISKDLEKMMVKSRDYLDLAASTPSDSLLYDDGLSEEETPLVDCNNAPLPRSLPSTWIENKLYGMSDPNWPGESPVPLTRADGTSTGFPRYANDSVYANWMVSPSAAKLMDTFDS
B1 showed a KIRA:~ EC50 of 0.3 nM and a KIRA:~ Max Efficacy vs WT of 110%.

In turn, B2 returned a KIRA:~ EC50 of 1 nM and a KIRA:~ Max Efficacy vs WT of 105%.

In turn, B3 yielded a KIRA:~ EC50 of 0.7 nM and a KIRA:~ Max Efficacy vs WT of 90%.

In the next assay the target is T1, c-Ret (RET receptor tyrosine kinase) on NB41A3-mRL3 cells (UniProt P35546 29-1115, limits assumed). The assay is described as follows: cell-based or functional assay.
T1 sequence (P35546 29-1115 limits assumed): as above
Regarding B4, the “KIRA:~ EC50” value is approximately 0.7 nM and the “KIRA:~ Max Efficacy vs WT” value is approximately 115%.

For B5, the “KIRA:~ EC50” value was approximately 1 nM and the “KIRA:~ Max Efficacy vs WT” value was approximately 80%.

Turning to B6, the “KIRA:~ EC50” value is approximately 11 nM and the “KIRA:~ Max Efficacy vs WT” value is more than 80%.

As to B7, the “KIRA:~ EC50” value was approximately 0.8 nM and the “KIRA:~ Max Efficacy vs WT” value is approximately 100%.

For the molecule B8, the “KIRA:~ EC50” value was approximately 1.6 nM and the “KIRA:~ Max Efficacy vs WT” value was approximately 90%.

As to B9, the “KIRA:~ EC50” value is approximately 0.2 nM and the “KIRA:~ Max Efficacy vs WT” value was approximately 72%.

On to B10, for which the “KIRA:~ EC50” value is approximately 0.2 nM and the “KIRA:~ Max Efficacy vs WT” value is approximately 83%.

In the case of B11, the “KIRA:~ EC50” value is approximately 0.6 nM and the “KIRA:~ Max Efficacy vs WT” value was approximately 80%.

B12: the “KIRA:~ EC50” value is approximately 0.2 nM and the “KIRA:~ Max Efficacy vs WT” value is approximately 105%.

Turning to B13, the “KIRA:~ Max Efficacy vs WT” value was approximately 100%.

The target in a further assay is T1, c-Ret (RET receptor tyrosine kinase) on …. The experiment in a line: cell-based or functional assay. The source holds these as a separate data set.
Consider B6, for which the “potency in the KIRA ELISA relative to wild-type NBN113” value was approximately 10 fold less potent.
